{"source": "paper PMC2115384", "about": "(The Journal of Cell Biology, 1989)", "test_in_all_cases": "native gel or EMSA", "key": {"[1]": {"molecular_target": "ankyrin solubilized from MDCK cells (dog (endogenous in MDCK))"}, "[2]": {"molecular_target": "fodrin solubilized from MDCK cells (alpha- and beta-subunits) (dog (endogenous in MDCK))"}, "[3]": {"molecular_target": "purified human erythrocyte spectrin heterotetramers (human, UniProt P02549 1-2419; P11277 1-2137)", "sequence (P02549 whole entry, chain 1 of 2)": "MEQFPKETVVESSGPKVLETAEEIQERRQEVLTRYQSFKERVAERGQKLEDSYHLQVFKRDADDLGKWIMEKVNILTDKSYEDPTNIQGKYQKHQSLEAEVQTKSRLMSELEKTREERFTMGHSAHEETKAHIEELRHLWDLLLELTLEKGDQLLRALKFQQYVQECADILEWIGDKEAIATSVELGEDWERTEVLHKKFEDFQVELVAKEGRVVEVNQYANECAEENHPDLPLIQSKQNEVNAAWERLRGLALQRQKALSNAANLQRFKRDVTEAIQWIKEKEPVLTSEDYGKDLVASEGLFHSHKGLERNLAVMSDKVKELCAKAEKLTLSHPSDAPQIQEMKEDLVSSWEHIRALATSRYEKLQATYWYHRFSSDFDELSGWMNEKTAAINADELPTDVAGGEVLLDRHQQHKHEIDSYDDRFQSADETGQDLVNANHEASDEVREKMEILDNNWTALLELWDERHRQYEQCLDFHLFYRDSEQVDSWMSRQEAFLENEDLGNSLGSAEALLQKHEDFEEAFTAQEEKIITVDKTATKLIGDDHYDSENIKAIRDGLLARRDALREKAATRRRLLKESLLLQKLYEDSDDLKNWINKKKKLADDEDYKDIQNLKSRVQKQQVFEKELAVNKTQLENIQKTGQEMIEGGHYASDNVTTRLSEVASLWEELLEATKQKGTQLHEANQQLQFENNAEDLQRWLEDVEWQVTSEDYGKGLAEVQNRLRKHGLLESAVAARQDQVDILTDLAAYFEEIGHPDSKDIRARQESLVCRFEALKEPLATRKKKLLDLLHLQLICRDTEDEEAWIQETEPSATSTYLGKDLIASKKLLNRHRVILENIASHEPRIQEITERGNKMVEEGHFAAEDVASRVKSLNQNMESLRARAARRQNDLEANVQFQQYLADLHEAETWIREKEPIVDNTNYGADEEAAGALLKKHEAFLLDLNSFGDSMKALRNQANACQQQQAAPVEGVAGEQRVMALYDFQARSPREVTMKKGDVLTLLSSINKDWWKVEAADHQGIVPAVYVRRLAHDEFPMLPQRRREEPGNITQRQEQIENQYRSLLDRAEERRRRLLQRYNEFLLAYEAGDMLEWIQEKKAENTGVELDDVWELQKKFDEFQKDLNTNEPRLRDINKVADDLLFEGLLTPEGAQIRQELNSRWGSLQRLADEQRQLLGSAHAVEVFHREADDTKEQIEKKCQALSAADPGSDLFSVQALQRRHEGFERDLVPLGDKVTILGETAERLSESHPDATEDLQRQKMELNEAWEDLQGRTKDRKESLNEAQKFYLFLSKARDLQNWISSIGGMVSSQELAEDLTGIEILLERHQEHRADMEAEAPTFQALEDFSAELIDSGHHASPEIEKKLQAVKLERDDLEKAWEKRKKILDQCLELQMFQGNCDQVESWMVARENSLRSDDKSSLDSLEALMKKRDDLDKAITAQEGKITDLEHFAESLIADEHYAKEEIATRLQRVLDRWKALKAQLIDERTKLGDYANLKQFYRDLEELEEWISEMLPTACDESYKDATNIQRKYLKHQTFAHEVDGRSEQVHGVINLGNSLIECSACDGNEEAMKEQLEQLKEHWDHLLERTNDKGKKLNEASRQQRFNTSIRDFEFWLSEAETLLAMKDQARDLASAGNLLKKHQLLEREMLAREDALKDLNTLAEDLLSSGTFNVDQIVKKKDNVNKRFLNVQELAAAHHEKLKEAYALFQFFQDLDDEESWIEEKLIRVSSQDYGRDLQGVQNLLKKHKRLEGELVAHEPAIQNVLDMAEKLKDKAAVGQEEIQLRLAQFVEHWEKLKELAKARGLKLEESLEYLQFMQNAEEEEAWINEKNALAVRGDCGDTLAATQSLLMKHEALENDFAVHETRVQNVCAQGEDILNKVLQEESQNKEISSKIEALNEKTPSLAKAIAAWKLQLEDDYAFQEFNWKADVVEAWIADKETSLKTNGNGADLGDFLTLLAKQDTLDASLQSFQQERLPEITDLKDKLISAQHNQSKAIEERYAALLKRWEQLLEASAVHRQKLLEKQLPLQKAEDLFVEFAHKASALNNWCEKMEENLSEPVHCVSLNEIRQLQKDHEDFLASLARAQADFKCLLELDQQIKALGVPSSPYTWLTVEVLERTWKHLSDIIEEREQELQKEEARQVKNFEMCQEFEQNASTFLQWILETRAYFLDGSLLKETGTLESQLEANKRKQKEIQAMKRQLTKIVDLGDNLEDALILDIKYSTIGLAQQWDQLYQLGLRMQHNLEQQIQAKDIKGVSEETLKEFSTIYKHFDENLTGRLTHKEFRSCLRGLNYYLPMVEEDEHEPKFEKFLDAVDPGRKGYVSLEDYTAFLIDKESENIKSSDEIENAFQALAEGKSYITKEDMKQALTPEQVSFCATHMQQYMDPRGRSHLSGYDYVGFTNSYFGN", "sequence (P11277 whole entry, chain 2 of 2)": "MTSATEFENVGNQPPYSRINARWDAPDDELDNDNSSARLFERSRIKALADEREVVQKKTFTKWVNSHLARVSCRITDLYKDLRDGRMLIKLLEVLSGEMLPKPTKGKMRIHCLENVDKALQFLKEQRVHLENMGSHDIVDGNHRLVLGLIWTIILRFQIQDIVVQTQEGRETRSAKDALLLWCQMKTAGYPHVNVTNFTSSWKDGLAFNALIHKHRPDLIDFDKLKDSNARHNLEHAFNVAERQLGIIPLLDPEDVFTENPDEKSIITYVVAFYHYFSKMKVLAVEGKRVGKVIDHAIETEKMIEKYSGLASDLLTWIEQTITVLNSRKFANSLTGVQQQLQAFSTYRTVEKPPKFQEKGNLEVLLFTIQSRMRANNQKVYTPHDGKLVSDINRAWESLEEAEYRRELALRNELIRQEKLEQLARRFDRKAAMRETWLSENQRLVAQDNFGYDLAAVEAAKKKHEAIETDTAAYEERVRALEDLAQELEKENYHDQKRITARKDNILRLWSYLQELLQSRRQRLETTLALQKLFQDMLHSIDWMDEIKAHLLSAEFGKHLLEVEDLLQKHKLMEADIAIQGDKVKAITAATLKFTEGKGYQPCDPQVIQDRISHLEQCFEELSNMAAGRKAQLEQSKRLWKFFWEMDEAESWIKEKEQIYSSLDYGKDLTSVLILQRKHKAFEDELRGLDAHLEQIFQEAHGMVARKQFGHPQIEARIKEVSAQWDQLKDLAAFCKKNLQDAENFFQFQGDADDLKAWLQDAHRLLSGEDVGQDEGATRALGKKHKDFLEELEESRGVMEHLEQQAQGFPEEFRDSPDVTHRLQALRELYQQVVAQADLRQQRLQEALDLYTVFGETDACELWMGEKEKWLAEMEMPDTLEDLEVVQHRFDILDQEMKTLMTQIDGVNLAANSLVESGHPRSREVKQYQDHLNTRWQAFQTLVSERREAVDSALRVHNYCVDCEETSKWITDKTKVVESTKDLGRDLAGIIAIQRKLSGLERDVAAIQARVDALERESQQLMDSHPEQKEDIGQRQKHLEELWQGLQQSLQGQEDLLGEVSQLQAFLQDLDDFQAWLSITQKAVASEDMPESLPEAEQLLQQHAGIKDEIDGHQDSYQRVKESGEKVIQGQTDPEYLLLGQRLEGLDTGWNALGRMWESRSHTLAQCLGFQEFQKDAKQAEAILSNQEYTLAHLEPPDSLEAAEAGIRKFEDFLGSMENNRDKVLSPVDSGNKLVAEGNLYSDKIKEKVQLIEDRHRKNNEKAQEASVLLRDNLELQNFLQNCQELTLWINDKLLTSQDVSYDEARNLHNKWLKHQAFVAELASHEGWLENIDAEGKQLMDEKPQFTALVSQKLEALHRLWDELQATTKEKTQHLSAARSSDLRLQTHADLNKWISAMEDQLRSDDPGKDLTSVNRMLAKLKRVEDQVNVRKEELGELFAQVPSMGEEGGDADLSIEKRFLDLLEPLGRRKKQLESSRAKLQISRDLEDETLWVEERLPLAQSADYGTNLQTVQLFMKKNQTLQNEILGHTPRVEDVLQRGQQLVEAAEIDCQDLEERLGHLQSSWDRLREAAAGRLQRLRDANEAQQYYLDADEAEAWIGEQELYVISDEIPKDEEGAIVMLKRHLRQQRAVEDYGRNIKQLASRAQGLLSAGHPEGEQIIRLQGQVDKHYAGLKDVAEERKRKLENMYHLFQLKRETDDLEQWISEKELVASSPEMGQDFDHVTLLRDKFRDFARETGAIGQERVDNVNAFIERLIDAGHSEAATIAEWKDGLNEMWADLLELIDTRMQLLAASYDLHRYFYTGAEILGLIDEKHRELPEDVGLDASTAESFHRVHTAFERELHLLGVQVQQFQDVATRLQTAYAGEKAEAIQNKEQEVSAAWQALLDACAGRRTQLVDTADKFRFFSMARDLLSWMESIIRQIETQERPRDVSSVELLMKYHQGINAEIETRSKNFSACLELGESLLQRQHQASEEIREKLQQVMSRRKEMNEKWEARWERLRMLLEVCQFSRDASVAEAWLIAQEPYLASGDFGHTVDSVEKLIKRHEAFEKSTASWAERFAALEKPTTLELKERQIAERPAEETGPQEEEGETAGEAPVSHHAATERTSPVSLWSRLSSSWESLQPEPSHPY"}}}
{"molecule": "Na+,K+-ATPase solubilized from MDCK cells (alpha- and beta-subunits) (from UniProt P50997 1-1021; P06583 1-303) (complex)", "values": [{"measurement": "percent of solubilized Na+,K+-ATPase comigrating with ankyrin and fodrin", "setting": "[1]", "result": "> 80", "unit": "%"}, {"measurement": "percent of solubilized Na+,K+-ATPase comigrating with ankyrin and fodrin", "setting": "[2]", "result": "> 80", "unit": "%"}]}
{"molecule": "purified human erythrocyte ankyrin (natural protein, UniProt P16157 1-1881, looked up) MPYSVGFREADAATSFLRAARSGNLDKALDHLRNGVDINTCNQNGLNGLHLASKEGHVKMVVELLHKEIILETTTKKGNTALHIAALAGQDEVVRELVNYGANVNAQSQKGFTPLYMAAQENHLEVVKFLLENGANQNVATEDGFTPLAVALQQGHENVVAHLINYGTKGKVRLPALHIAARNDDTRTAAVLLQNDPNPDVLSKTGFTPLHIAAHYENLNVAQLLLNRGASVNFTPQNGITPLHIASRRGNVIMVRLLLDRGAQIETKTKDELTPLHCAARNGHVRISEILLDHGAPIQAKTKNGLSPIHMAAQGDHLDCVRLLLQYDAEIDDITLDHLTPLHVAAHCGHHRVAKVLLDKGAKPNSRALNGFTPLHIACKKNHVRVMELLLKTGASIDAVTESGLTPLHVASFMGHLPIVKNLLQRGASPNVSNVKVETPLHMAARAGHTEVAKYLLQNKAKVNAKAKDDQTPLHCAARIGHTNMVKLLLENNANPNLATTAGHTPLHIAAREGHVETVLALLEKEASQACMTKKGFTPLHVAAKYGKVRVAELLLERDAHPNAAGKNGLTPLHVAVHHNNLDIVKLLLPRGGSPHSPAWNGYTPLHIAAKQNQVEVARSLLQYGGSANAESVQGVTPLHLAAQEGHAEMVALLLSKQANGNLGNKSGLTPLHLVAQEGHVPVADVLIKHGVMVDATTRMGYTPLHVASHYGNIKLVKFLLQHQADVNAKTKLGYSPLHQAAQQGHTDIVTLLLKNGASPNEVSSDGTTPLAIAKRLGYISVTDVLKVVTDETSFVLVSDKHRMSFPETVDEILDVSEDEGEELISFKAERRDSRDVDEEKELLDFVPKLDQVVESPAIPRIPCAMPETVVIRSEEQEQASKEYDEDSLIPSSPATETSDNISPVASPVHTGFLVSFMVDARGGSMRGSRHNGLRVVIPPRTCAAPTRITCRLVKPQKLSTPPPLAEEEGLASRIIALGPTGAQFLSPVIVEIPHFASHGRGDRELVVLRSENGSVWKEHRSRYGESYLDQILNGMDEELGSLEELEKKRVCRIITTDFPLYFVIMSRLCQDYDTIGPEGGSLKSKLVPLVQATFPENAVTKRVKLALQAQPVPDELVTKLLGNQATFSPIVTVEPRRRKFHRPIGLRIPLPPSWTDNPRDSGEGDTTSLRLLCSVIGGTDQAQWEDITGTTKLVYANECANFTTNVSARFWLSDCPRTAEAVNFATLLYKELTAVPYMAKFVIFAKMNDPREGRLRCYCMTDDKVDKTLEQHENFVEVARSRDIEVLEGMSLFAELSGNLVPVKKAAQQRSFHFQSFRENRLAMPVKVRDSSREPGGSLSFLRKAMKYEDTQHILCHLNITMPPCAKGSGAEDRRRTPTPLALRYSILSESTPGSLSGTEQAEMKMAVISEHLGLSWAELARELQFSVEDINRIRVENPNSLLEQSVALLNLWVIREGQNANMENLYTALQSIDRGEIVNMLEGSGRQSRNLKPDRRHTDRDYSLSPSQMNGYSSLQDELLSPASLGCALSSPLRADQYWNEVAVLDAIPLAATEHDTMLEMSDMQVWSAGLTPSLVTAEDSSLECSKAEDSDATGHEWKLEGALSEEPRGPELGSLELVEDDTVDSDATNGLIDLLEQEEGQRSEEKLPGSKRQDDATGAGQDSENEVSLVSGHQRGQARITHSPTVSQVTERSQDRLQDWDADGSIVSYLQDAAQGSWQEEVTQGPHSFQGTSTMTEGLEPGGSQEYEKVLVSVSEHTWTEQPEAESSQADRDRRQQGQEEQVQEAKNTFTQVVQGNEFQNIPGEQVTEEQFTDEQGNIVTKKIIRKVVRQIDLSSADAAQEHEEVTVEGPLEDPSELEVDIDYFMKHSKDHTSTPNP", "values": [{"measurement": "binding result", "setting": "[3]", "result": "binds"}]}
